According to patent US20240052048A1 (SUZHOU QIN PHARMACEUTICALS, published 2024):
Read-outs that look alike come from different tables or passages of the source.

B2: human BCMA (recombinant antigen, tag not stated for the assay) (receptor, UniProt Q02223 1-54, looked up)
chain: MLQMAGQCSQNEYFDSLLHACIPCQLRCSSNTPPLTCQRYCNASVTNSVKGTNA
notes: The ELISA and screening sections say only 'human BCMA'; also called human BCMA antigen

Legend:
[1] = target: B2; assay: ELISA (OD450) on coated human BCMA; EC50 table in the figure
[2] = target: B2; assay: as above; remark: listed apart in the source
[3] = target: T1, monkey BCMA on BCMA-CHO cells (cynomolgus monkey, UniProt A0A2K5UD97 1-183); assay: flow cytometry (MFI) on CHO cells expressing monkey BCMA; EC50 table in the figure
T1 construct: whole, on cells; also called monkey BCMA-CHO cells; CHO cells overexpressing monkey BCMA
T1 sequence (A0A2K5UD97 entry or part of it): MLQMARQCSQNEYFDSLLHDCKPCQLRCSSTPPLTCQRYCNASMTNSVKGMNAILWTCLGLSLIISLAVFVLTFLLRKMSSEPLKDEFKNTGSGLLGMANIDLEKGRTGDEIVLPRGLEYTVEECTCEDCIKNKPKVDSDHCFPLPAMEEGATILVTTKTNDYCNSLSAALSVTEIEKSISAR

[4] = target: T2, monkey BCMA (recombinant antigen, tag not stated for the assay) (monkey, UniProt A0A2K5UD97 1-53); assay: ELISA (OD450) on coated monkey BCMA; EC50 table in the figure
T2 construct: The ELISA, screening and BLI sections say only 'monkey BCMA' or 'monkey BCMA protein'; also called monkey BCMA protein; monkey BCMA antigen; not shown: The carrier tag (human IgG1 Fc or His tag) of the bought ACRO antigen
T2 sequence (A0A2K5UD97 entry or part of it limits assumed): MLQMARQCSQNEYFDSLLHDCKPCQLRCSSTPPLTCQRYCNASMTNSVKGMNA

[5] = target: T3, Biotin-labeled human BCMA (human, UniProt Q02223 1-54, limits assumed, Biotin-labeled (site not stated)); assay: blocking ELISA (OD450): human APRIL coated, antibody premixed with Biotin-labeled human BCMA; blocked ligand APRIL; IC50 table in the figure
T3 sequence (looked up): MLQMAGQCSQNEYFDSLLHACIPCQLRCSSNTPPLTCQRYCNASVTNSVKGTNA

human BCMA on H929 cells = target: T4, human BCMA on H929 cells (human, UniProt Q02223 1-184); assay: flow cytometry (MFI) on myeloma cell line H929 expressing BCMA; EC50 table in the figure; curve still rising at about 60 µg/mL
T4 construct: whole, on cells; also called human myeloma cell line H929 cells expressing BCMA
T4 sequence (looked up): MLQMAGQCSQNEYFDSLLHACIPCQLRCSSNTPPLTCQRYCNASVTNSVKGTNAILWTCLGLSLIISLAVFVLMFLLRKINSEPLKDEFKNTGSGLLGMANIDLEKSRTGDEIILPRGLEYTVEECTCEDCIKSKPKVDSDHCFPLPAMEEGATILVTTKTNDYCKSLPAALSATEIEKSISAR

human-BCMA-Fc [6] = target: T5, human-BCMA-Fc (human, UniProt Q02223 1-54); assay: BLI (Octet RED96), antibody on FAB2G sensor, human BCMA-Fc at 200, 50, 12.5 nM
T5 construct: Bought from ACRO Biosystems, catalog BC7-H5254; also called ACRO Biosystems BC7-H5254; not shown: Fc tag
T5 sequence (looked up): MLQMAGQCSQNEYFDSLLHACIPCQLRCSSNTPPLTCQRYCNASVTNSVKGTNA

[7] = target: T3, Biotin-labeled human BCMA; assay: blocking ELISA (OD450): human BAFF coated, antibody premixed with Biotin-labeled human BCMA; blocked ligand BAFF; IC50 table in the figure
[8] = target: B2; assay: ELISA (OD450) on coated human BCMA; EC50 table in the figure; remark: listed apart in the source
[9] = target: T2, monkey BCMA (recombinant antigen, tag …); assay: ELISA (OD450) on coated monkey BCMA; EC50 table in the figure; remark: listed apart in the source
[10] = target: T6, human BCMA on BCMA-HEK293 cells (human, UniProt Q02223 1-184); assay: flow cytometry (MFI) on HEK293 cells expressing human BCMA; EC50 table in the figure
T6 construct: whole, on cells; also called human BCMA-HEK293 cells; HEK293 cells overexpressing human BCMA
T6 sequence (looked up): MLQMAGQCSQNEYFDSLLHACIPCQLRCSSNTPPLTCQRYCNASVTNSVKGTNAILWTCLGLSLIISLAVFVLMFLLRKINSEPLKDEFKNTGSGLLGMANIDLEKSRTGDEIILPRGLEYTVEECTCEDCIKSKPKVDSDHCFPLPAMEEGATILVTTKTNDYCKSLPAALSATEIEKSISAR

[11] = target: T2, monkey BCMA (recombinant antigen, tag …); assay: ELISA (OD450) on coated monkey BCMA; EC50 table in the figure; remark: listed apart in the source
[12] = target: T3, Biotin-labeled human BCMA; assay: blocking ELISA (OD450): human BAFF coated, antibody premixed with Biotin-labeled human BCMA; blocked ligand BAFF; IC50 table in the figure; remark: listed apart in the source
human-BCMA-Fc [13] = target: T5, human-BCMA-Fc; assay: ELISA (OD450), GSK2857916 titrated up to 10 µg/mL on Human BCMA-Fc; EC50 table in the figure
[14] = target: T2, monkey BCMA (recombinant antigen, tag …); assay: BLI (Octet RED96), antibody on FAB2G sensor, monkey BCMA protein at 200, 50, 12.5 nM
[15] = target: T6, human BCMA on BCMA-HEK293 cells; assay: flow cytometry (MFI) on HEK293 cells expressing human BCMA; EC50 table in the figure; remark: listed apart in the source
[16] = target: T3, Biotin-labeled human BCMA; assay: blocking ELISA (OD450): human APRIL coated, antibody premixed with Biotin-labeled human BCMA; blocked ligand APRIL; IC50 table in the figure; remark: listed apart in the source
[17] = target: T3, Biotin-labeled human BCMA; assay: as above; remark: listed apart in the source
[18] = target: T3, Biotin-labeled human BCMA; assay: blocking ELISA (OD450): human BAFF coated, antibody premixed with Biotin-labeled human BCMA; blocked ligand BAFF; IC50 table in the figure; remark: listed apart in the source
human-BCMA-His = target: T7, human-BCMA-His (human, UniProt Q02223 1-54); assay: ELISA (OD450), GSK2857916 titrated up to 10 µg/mL on Human BCMA-His; EC50 table in the figure
T7 construct: Bought from ACRO Biosystems, catalog BCA-H522y; also called ACRO Biosystems BCA-H522y; not shown: His tag
T7 sequence (looked up): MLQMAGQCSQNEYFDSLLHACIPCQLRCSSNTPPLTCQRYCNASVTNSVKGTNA

[19] = target: T1, monkey BCMA on BCMA-CHO cells; assay: flow cytometry (MFI) on CHO cells expressing monkey BCMA; EC50 table in the figure; curve still rising at 10 µg/mL
human-APRIL-Fc [20] = target: T8, human-APRIL-Fc (human, UniProt O75888 115-250, limits assumed); assay: ELISA (OD450), plate coated with APRIL 8 µg/ml, human BCMA titrated up to 10 µg/mL; EC50 table in the figure
T8 construct: Bought from ACRO Biosystems, APL-H5267; also called human APRIL protein; ACRO Biosystems APL-H5267; not shown: Fc tag
T8 sequence (looked up): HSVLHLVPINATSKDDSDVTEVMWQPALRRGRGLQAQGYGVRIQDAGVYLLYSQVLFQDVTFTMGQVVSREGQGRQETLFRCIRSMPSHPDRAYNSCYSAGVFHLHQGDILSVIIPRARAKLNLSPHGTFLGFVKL

human-APRIL-Fc [21] = target: T8, human-APRIL-Fc; assay: ELISA (OD450), plate coated with APRIL 4 µg/ml, human BCMA titrated up to 10 µg/mL; EC50 table in the figure
human-APRIL-Fc [22] = target: T8, human-APRIL-Fc; assay: ELISA (OD450), plate coated with APRIL 2 µg/ml, human BCMA titrated up to 10 µg/mL; EC50 table in the figure
human-APRIL-Fc [23] = target: T8, human-APRIL-Fc; assay: ELISA (OD450), plate coated with APRIL 1 µg/ml, human BCMA titrated up to 10 µg/mL; EC50 table in the figure

B1: GSK2857916 (positive control antibody, not coupled to the toxin molecule) (antibody, V domains shown)
VH: QVQLVQSGAEVKKPGSSVKVSCKASGGTFSNYWMHWVRQAPGQGLEWMGATYRGHSDTYYNQKFKGRVTITADKSTSTAYMELSSLRSEDTAVYYCARGAIYDGYDVLDNWGQGTLVTVSS
VL: DIQMTQSPSSLSASVGDRVTITCSASQDISNYLNWYQQKPGKAPKLLIYYTSNLHSGVPSRFSGSGSGTDFTLTISSLQPEDFATYYCQQYRKLPWTFGQGTKLEIK
notes: also called Belantamab mafodotin antibody; positive antibody
Binder B1 has an EC50 [1] of 0.772 µg/mL, an EC50 [2] of 0.642 µg/mL and an EC50 [3] of 2.88 µg/mL. The EC50 [4] was 0.862 µg/mL, the IC50 [5] was 1.51 µg/mL and the EC50 (human BCMA on H929 cells) was 6.8 µg/mL. It also gave a Kd (human-BCMA-Fc [6]) of 0.0539 nM, a koff (human-BCMA-Fc [6]) of 1.19e-05 s⁻¹ and a kon (human-BCMA-Fc [6]) of 220000 M⁻¹ s⁻¹. It also gave an IC50 [7] of 1.36 µg/mL, an EC50 [8] of 0.514 µg/mL and an EC50 [9] of 0.341 µg/mL. The EC50 [10] was 0.293 µg/mL, the EC50 [11] was 0.749 µg/mL and the IC50 [12] was 1.37 µg/mL. It also gave an EC50 (human-BCMA-Fc [13]) of 0.304 µg/mL, a Kd [14] of 0.352 nM and a koff [14] of 0.000111 s⁻¹. The kon [14] was 317000 M⁻¹ s⁻¹, the EC50 [15] was 1.09 µg/mL and the IC50 [16] was 1.6 µg/mL. It also gave an IC50 [17] of 1.79 µg/mL, an IC50 [18] of 1.41 µg/mL and an EC50 (human-BCMA-His) of 0.77 µg/mL. For the same binder, the EC50 [19] was 7.22 µg/mL.

B2 was tested, and the EC50 (human-APRIL-Fc [20]) was 2.05 µg/mL, the EC50 (human-APRIL-Fc [21]) was 1.57 µg/mL and the EC50 (human-APRIL-Fc [22]) was 1.28 µg/mL. For the same binder, the EC50 (human-APRIL-Fc [23]) was 1.07 µg/mL.
